Assay results published in US20240002531A1 (ONO PHARMACEUTICAL, published 2024).
Where two headings read alike, the source gives them in different places.

What was measured:
Experiment in all cases: peptide ELISA, OD 655 nm
[1] = target: T1, P612A peptide (HER2 603-622 with P612A) (human)
T1 peptide: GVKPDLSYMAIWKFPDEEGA

[2] = target: T2, D607A peptide (HER2 603-622 with D607A) (human)
T2 peptide: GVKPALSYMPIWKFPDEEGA

[3] = target: T3, W614A peptide (HER2 603-622 with W614A) (human)
T3 peptide: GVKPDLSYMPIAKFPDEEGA

[4] = target: T4, K615A peptide (HER2 603-622 with K615A) (human)
T4 peptide: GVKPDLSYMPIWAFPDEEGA

[5] = target: T5, V604A peptide (HER2 603-622 with V604A) (human)
T5 peptide: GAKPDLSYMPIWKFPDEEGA

[6] = target: T6, E619A peptide (HER2 603-622 with E619A) (human)
T6 peptide: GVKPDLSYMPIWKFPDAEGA

[7] = target: T7, F616A peptide (HER2 603-622 with F616A) (human)
T7 peptide: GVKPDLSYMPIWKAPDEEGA

[8] = target: T8, D618A peptide (HER2 603-622 with D618A) (human)
T8 peptide: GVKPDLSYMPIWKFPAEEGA

[9] = target: T9, HER2 peptide p603-622 (amino acids 603 to 622 of human HER2) (human)
T9 construct: Synthetic peptide; also called wild-type HER2 peptide
T9 peptide: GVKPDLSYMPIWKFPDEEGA

[10] = target: T10, HER2_604-622C peptide (NH2-VKPDLSYMPIWKFPDEEGAC-COOH) (human)
T10 construct: KLH was added for immunisation, the peptide itself was coated in the screening ELISA
T10 peptide: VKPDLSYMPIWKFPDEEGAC

[11] = target: T11, G621A peptide (HER2 603-622 with G621A) (human)
T11 peptide: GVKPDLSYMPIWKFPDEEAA

[12] = target: T12, E620A peptide (HER2 603-622 with E620A) (human)
T12 peptide: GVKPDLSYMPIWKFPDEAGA

[13] = target: T13, G603A peptide (HER2 603-622 with G603A) (human)
T13 peptide: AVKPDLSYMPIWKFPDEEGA

[14] = target: T14, I613A peptide (HER2 603-622 with I613A) (human)
T14 construct: also called 1613A
T14 peptide: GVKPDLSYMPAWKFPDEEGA

[15] = target: T15, S609A peptide (HER2 603-622 with S609A) (human)
T15 peptide: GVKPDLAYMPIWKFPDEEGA

[16] = target: T16, Y610A peptide (HER2 603-622 with Y610A) (human)
T16 peptide: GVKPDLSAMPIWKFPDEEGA

[17] = target: T17, P606A peptide (HER2 603-622 with P606A) (human)
T17 peptide: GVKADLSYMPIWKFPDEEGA

[18] = target: T18, K605A peptide (HER2 603-622 with K605A) (human)
T18 peptide: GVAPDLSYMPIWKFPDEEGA

[19] = target: T19, M611A peptide (HER2 603-622 with M611A) (human)
T19 peptide: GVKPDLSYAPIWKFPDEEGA

[20] = target: T20, P617A peptide (HER2 603-622 with P617A) (human)
T20 peptide: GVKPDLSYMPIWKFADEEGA

[21] = target: T21, L608A peptide (HER2 603-622 with L608A) (human)
T21 peptide: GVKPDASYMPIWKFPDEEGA

[22] = target: T3, W614A peptide (HER2 603-622 with W614A)
[23] = target: T7, F616A peptide (HER2 603-622 with F616A)

B1: H2Mab-293 antibody (antibody, mouse IgG3, V domains shown)
VH: EVQLVESGGGLVQPGGSLKLSCAASGFTFSNYGIFWVRQTPDKRLELVATVKSNGGSTYYPDSVKGRFTISRDNAKKTLYLQMSSLKSEDTAMYYCAREGGDYWGQGTSVTVSS
VL: DIVMTQSHKFMSTSVGDRVSITCKASQDVGTAVAWYQQKPGQSPKLLIYWTSTRHIGVPDRFTGSGSGTDFTLTIRNVQSEDLANYFCQQYSKNPLTFGAGTKLELKR
B1: binds [1]; binds [2]; binds [3]. B1: binds [4]; binds [5]; binds [6]. B1: binds [7]; binds [8]; binds [9]. B1: binds [10]; binds [11]; binds [12]. B1: binds [13]; binds [14]; binds [15]. B1: binds [16]; binds [17]; binds [18]. B1: binds [19]; binds [20]; binds [21].

B2: H2Mab-296 antibody (antibody, mouse IgG1, kappa, V domains shown)
VH: QVTLKESGPGILQPSQTLSLTCSFSGFSLSTSGMGVGWIRQPSGKGLEWLAHIWWDDDKRYNPALKSRLTISKDTSSNQVFLKIANVDTSDTATYYCSRIEGQRGFAYWGQGTLVTVSA
VL: DIVMSQSPSSLAVSVGEMITMTCKSSQSLLYSRNQKNYLAWYQQKPGQSPKLLIYWASTRESGVPDRFTGSGSGTDFTLTISSVKAEDLAVYYCQQYYSQPYTFGGGTKLEIKR
B2: binds [1]; binds [2]; binds [3]. B2: binds [5]; binds [6]; no binding (tested: 10 ug/ml) [7]. B2: binds [8]; binds [9]; binds [10]. B2: binds [11]; binds [12]; binds [13]. B2: binds [14]; binds [15]; binds [16]. B2: binds [17]; binds [18]; binds [19]. B2: binds [20]; binds [21].

B3: H2Mab-298 antibody (antibody, mouse IgG1, kappa, V domains shown)
VH: DVKLVESGGGLVKPGGSLKLSCAASGFTFSRYSMSWVRQTPEKKLEWVAIISTGGSYMFYPDSAKGRFTISRDDAKNTLYLQMSSLKSEDTAMYYCTREAGDYWGQGTTLTVSS
VL: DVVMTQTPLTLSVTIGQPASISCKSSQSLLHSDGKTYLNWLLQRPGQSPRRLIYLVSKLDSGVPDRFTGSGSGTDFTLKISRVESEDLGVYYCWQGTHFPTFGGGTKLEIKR
B3: binds [1]; binds [2]; binds [3]. B3: binds [4]; binds [5]; binds [6]. B3: binds [7]; binds [8]; binds [9]. B3: binds [10]; binds [11]; binds [12]. B3: binds [13]; binds [14]; binds [15]. B3: binds [16]; binds [17]; binds [18]. B3: binds [19]; binds [20]; binds [21].

B4: H2Mab-295 antibody (antibody, mouse IgG1, kappa, V domains shown)
VH: EVQLQQSGPELVKPGASRKISCKASGYSFTGYTMNWVKKSHGKNLEWIGLINPYNGGTRYNQKFKGKATLTVDKSSSTAYMELLSLTSEDSAVYYCVKEPSDYWGQGTTLTVSS
VL: DVVMTQTPLSLPVSLGDQASISCRSSQSLVHSNGNTYLHWYLQKPGQSPKLLIYKVSKRFSGVPDRFSGCGSGTDFTLKISRLEAEDLGVYFCSQSSHVPPTFGGGTKLEIKR
B4: binds [1]; binds [2]; binds [3]. B4: binds [4]; binds [5]; binds [6]. B4: binds [7]; binds [8]; binds [9]. B4: binds [10]; binds [11]; binds [12]. B4: binds [13]; binds [14]; binds [15]. B4: binds [16]; binds [17]; binds [18]. B4: binds [19]; binds [20]; binds [21].

B5: H2Mab-286 antibody (antibody, mouse IgG1, kappa, V domains shown)
VH: DVQLQESGPGLVKPSQSLSLTCTVTGYSITSDYGWNWIRQFPGNKLEWMGYIRYSGITSYNPSLKSRISITRDTSKNQFFLQLNSVTTEDTATYYCTREVLSWGQGTTLTVSS
VL: DVVMTQTPLSLPVSLGDQASISCRSSQSLVHSNGNTYLHWFLQKPGQSPKLLIYKVSNRFSGVPARFSGSGSGTDFTLKISRVEAEDLGVYFCSQSTHVPPTFGGGTKLEIKR
B5: no binding (tested: 10 ug/ml) [22]; no binding (tested: 10 ug/ml) [23].

B6: H2Mab-294 antibody (antibody, mouse IgG1, kappa, V domains shown)
VH: EVQLVESGGGLVQPGGSLKLSCAASGFTFSSYGMSWVRQTPDKRLELVATINSNGGGTYYPDSVKGRFTISRDNAKNTLYLQMSSLKSEDTAIYYCASPGSWFPYWGQGTLVTVSA
VL: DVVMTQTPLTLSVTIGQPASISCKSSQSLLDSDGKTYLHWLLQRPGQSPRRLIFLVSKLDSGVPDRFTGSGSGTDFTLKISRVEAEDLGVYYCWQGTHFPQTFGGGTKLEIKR
B6: binds [1]; binds [2]; no binding (tested: 10 ug/ml) [3]. B6: binds [4]; binds [5]; binds [6]. B6: binds [7]; binds [8]; binds [9]. B6: binds [10]; binds [11]; binds [12]. B6: binds [13]; binds [14]; binds [15]. B6: binds [16]; binds [17]; binds [18]. B6: binds [19]; binds [20]; binds [21].
